{"source": "paper PMC13506345", "about": "“Loss of cellular RNA homeostasis contributes to MDA5 activation during virus infection” (Nature Immunology, 2026)", "binders": {"B1": {"name": "anti-MDA5 monoclonal antibody A (clone 16) (antibody, V domains shown)", "VH": "QVQLQQSGPDLVRPGTSVKMSCKAAGYTFTNSWIGWLKQRPGHGLEWIGDIYPGGGDTNSNENFKGKATLTADTSSSTAYMQLSSLTSEDSAVYYCARSTVIMRGYFDVWGAGTMVTVSS", "VL": "DIQMTQSPASLSASVGETVTITCRASGNIHNFLAWYQQKQGKSPQLLVYNAKTLADGVPSRFSGSGSGTQYSLKINSLQPEDFGSYYCQHFWSTPLTFGAGTKLELK", "notes": "Monoclonal antibody raised against MDA5 (generated by C. Song and B. Jin); covalently coupled to Dynabeads for the IP; also called Ab A; monoclonal antibody 16; source: hybridoma cells grown in bioreactors (CELLline)"}, "B2": {"name": "anti-MDA5 monoclonal antibody B (clone 22) (antibody, V domains shown)", "VH": "QVQLQQSGPELVKPGASVKMSCKASGYTFTDYVISWVKQRTGQGLEWIGEIYPGSGNTFYNEKFKGKATLTADKSSNTAYMQLSSLTSEDSAVYFCARSGDYDLDYWGQGTSVTVSS", "VL": "EIVLTQSPTTMAASPGEKITITCSASSSISSNYLHWYQQKPGFSPKLLIYRTSNLASGVPARFSGSGSGTSYSLTIGTMEAEDVATYYCQQGGSIPLTFGAGTKLELK", "notes": "Hybridoma was non-recoverable; In some radiolabeling experiments pooled ascites fluids from several hybridoma clones including antibody B were used instead; Preincubated with Protein G Dynabeads for the IP; also called Ab B; monoclonal antibody 22"}, "B3": {"name": "mAb 17 (antibody, V domains shown)", "VH": "QVQLQQSGAELVRPGASVTLSCKASGYTFADYEIHWVRQTPVHGLEWIGAIGPETGNTAYNQKFKGKATLTVDKSSSTVYMDLRSLTSEDSAVYYCTRGRILDWGQGTLVTVSA", "VL": "DVVMTQTPLSLPVSLGDQASISCRSSQSLVHSNGNTYLHWYLQKPGQSPKLLIYKVSKRFSGVPDRFSGSGSGTDFTLKISRVEAEDLGVYFCSQSTHIPYTFGGGTKLEIK"}}, "key": {"[1]": {"target": "T1, melanoma differentiation-associated protein 5 (MDA5) (Homo sapiens (THP1 cells, endogenous), UniProt Q9BYX4)", "T1 construct": "MDA5 (melanoma differentiation-associated protein 5), endogenous in human monocytic THP1 cells; printed MW 135 kDa; native in the cell lysate for the first IP, denatured (6 M urea, 1% SDS eluate of the first IP) for the second IP; The same endogenous protein stood native (IP1) and denatured (IP2); the two states are told apart by the assays; also called endogenous MDA5; native MDA5; source: …", "T1 sequence (Q9BYX4 whole entry)": "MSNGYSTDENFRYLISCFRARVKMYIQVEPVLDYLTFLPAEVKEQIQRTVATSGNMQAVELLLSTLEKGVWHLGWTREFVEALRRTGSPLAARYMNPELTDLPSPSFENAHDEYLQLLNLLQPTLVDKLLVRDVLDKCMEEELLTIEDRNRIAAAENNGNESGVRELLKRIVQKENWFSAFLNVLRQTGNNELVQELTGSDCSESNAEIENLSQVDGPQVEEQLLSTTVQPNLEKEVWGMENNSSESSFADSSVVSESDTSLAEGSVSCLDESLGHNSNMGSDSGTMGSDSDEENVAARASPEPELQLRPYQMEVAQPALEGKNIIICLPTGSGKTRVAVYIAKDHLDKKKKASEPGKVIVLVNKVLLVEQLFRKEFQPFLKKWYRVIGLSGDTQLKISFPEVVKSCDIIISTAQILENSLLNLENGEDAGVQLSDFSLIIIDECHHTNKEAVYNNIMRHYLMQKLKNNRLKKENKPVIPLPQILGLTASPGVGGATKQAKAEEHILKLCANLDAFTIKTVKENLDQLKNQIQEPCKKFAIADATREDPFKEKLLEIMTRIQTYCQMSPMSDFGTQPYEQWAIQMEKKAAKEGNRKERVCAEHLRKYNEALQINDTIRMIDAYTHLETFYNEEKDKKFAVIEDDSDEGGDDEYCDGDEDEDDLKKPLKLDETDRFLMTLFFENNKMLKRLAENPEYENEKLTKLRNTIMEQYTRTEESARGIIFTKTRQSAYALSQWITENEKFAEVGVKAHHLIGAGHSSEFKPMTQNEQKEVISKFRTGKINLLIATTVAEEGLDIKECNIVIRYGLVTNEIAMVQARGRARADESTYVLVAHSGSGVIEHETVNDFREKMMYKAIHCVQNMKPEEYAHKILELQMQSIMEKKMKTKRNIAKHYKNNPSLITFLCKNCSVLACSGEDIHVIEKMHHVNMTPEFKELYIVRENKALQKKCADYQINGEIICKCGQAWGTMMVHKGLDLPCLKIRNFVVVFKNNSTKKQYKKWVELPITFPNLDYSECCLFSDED", "assay": "immunoprecipitation; first IP (IP1): antibody A coupled to Dynabeads, incubated with THP1 cell lysate (native MDA5) 2 h at 4 °C, high-salt washes; IP analysed by western blot for MDA5", "conditions": "one partner purified"}, "[2]": {"target": "T1, melanoma differentiation-associated …", "assay": "immunoprecipitation; second IP (IP2): MDA5 eluted from IP1 with urea cracking buffer (6 M urea, 1% SDS, 65 °C), neutralised with T-20 IP buffer, incubated with antibody B on Protein G Dynabeads 2 h at 4 °C; IP analysed by western blot for MDA5", "conditions": "both partners purified"}, "[3]": {"target": "T1, melanoma differentiation-associated …"}}, "note": "Read-outs that look alike come from different tables or passages of the source."}
{"binder": "B1", "values": [{"measurement": "binding result", "setting": "[1]", "result": "binds"}]}
{"binder": "B2", "values": [{"measurement": "binding result", "setting": "[2]", "result": "binds"}]}
{"binder": "B3", "values": [{"measurement": "binding result", "setting": "[3]", "result": "binds"}]}
